In patent publication US20030176678A1:

Target: intact IFNAR1 from human cells (IFNAR1 chain of the type I interferon receptor) (human) (UniProt P17181)
Experiment: cell-based or functional assay

Sequence of UniProt P17181 (P17181 28-557): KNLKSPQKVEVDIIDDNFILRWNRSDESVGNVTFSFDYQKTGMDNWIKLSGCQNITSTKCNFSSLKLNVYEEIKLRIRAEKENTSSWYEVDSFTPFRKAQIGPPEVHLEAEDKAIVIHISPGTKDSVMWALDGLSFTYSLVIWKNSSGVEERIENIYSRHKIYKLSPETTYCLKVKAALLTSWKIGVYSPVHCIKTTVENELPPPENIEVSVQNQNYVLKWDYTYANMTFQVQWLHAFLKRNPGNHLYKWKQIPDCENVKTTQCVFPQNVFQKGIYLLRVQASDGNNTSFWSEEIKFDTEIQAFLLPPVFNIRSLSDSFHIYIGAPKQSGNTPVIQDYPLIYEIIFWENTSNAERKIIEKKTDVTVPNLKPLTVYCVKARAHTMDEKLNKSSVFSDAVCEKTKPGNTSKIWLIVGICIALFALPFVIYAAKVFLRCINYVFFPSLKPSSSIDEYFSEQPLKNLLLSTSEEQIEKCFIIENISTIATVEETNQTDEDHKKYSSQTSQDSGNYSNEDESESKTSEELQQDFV

For “IR1B4/PRMT enzyme (endogenous protein of human myeloma U266S cells) (from UniProt Q99873 11-371)”, which reduction in the growth inhibitory effect of IFN-β on myeloma U266S cells by antisense-1 oligonucleotide (Alamar Blue) is on record?
The reduction in the growth inhibitory effect of IFN-β on myeloma U266S cells by antisense-1 oligonucleotide (Alamar Blue) was less than 5 fold.
